# Publication PMC4844956
# Legend:
# [1] = target: HEV ORF3 protein fused to the GAL4 binding domain; test: yeast two-hybrid quantitative α-galactosidase assay; conditions: triplicate samples, parent: est. 11, read off a plot
# [2] = target: HEV methyltransferase fused to the GAL4 binding domain (UniProt P33424); test: as above; conditions: triplicate samples, parent: est. 8.7, read off a plot
# [3] = target: GST fused X-domain (Hepatitis E virus) (UniProt P33424); test: pull-down; ~500 fmol ORF3-His or ~500 fmol Met-His alone with 500 fmol GST-X; bound fraction against input by band intensity
# [4] = target: GST fused X-domain (Hepatitis E virus) (UniProt P33424); test: pull-down; competition: ORF3-His and Met-His together with 500 fmol GST-X, equimolar (~500 fmol) or with 1 and 2 pmol of one of them
substance,measurement,setting,value
HEV X-domain (macro domain) fused to the GAL4 activation domain (from UniProt P33424) R93E,response (normalized α-gal units),[1]; P=0.077 vs wild type X,13
same,response (normalized α-gal units),[2]; P=0.51 vs wild type X,7.6
HEV X-domain (macro domain) fused to the GAL4 activation domain (from UniProt P33424) I66E; I67E,response (normalized α-gal units),[1]; P=0.002 vs wild type X,6.2
HEV X-domain (macro domain) fused to the GAL4 activation domain (from UniProt P33424) L101E; L102E,response (normalized α-gal units),[1],3.2
same,response (normalized α-gal units),[2],1.9
HEV X-domain (macro domain) fused to the GAL4 activation domain (from UniProt P33424) L94R,response (normalized α-gal units),[1]; P=0.056 vs wild type X,13
same,response (normalized α-gal units),[2]; P=0.82 vs wild type X,8.3
His-tagged ORF3 (pRSET ORF3) (from UniProt O90299 1-114) (natural protein),percent of input pulled down,[3],25%
same,percent of input in the bound fraction with equimolar Met-His present,[4],10%
HEV X-domain (macro domain) fused to the GAL4 activation domain (from UniProt P33424) R93E; L101E; L102E,response (normalized α-gal units),[1],2.9
same,response (normalized α-gal units),[2],1.6
